In publication PMC9287719 one finds Kd and IC50 data, which are given here for 12 substances.

Assay [1] addresses Recombinant FcγRIIIa (F158) with C-terminus Biotin (human) (UniProt P08637). The experiment in a line: BLI; Octet Red; biotinylated FcγR-AviTag loaded on Streptavidin biosensors (~0.5–1.0 nm); antibody in solution, 75 nM-1.17 nM for FcγRI, 5000 to 78.125 nM for the other receptors; PBST (PBS, 0.02% Tween20) pH 7.2; 60 s association, 60 s dissociation; steady state, one-site fit.

Assay [2] has as its target Recombinant FcγRI with C-terminus Biotin (human) (UniProt P12314). The assay is described as above.
Assay [3] deals with Recombinant FcγRIIa (R131) with C-terminus Biotin (human). The assay is described as above.
The target in assay [4] is Recombinant FcγRIIa (H131) with C-terminus Biotin (human) (UniProt P12318). The description is as above.
For assay [5], the target named is Recombinant FcγRIIIa (V158) with C-terminus Biotin (human). The description is as above.
The target in assay [6] is Recombinant FcγRIIa (R131) with C-terminus Biotin (human) (UniProt P12318).
The target of assay [7] is Recombinant FcγRIIIa (F158) with C-terminus Biotin (human) (UniProt P08637).
Assay [8] addresses Recombinant FcγRIIIa (V158) with C-terminus Biotin (human).
Target sequence in this assay (P08637 17-208 F176V): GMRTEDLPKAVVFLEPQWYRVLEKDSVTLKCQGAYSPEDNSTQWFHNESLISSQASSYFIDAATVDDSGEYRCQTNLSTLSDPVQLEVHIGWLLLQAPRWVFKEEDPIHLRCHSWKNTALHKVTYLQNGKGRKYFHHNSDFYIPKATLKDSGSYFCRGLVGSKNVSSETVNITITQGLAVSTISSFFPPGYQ
Assay [9] concerns the target Recombinant FcγRIIa (H131) with C-terminus Biotin (human) (UniProt P12318).
For assay [10], the target named is Recombinant FcγRIIb with C-terminus Biotin (human) (UniProt P31994). The assay can be described thus: other; qualitative only.
The target of assay [11] is Recombinant FcγRIIIa (F158) with C-terminus Biotin (human) (UniProt P08637). The following applies: domain or fragment.
Assay [12] has as its target Recombinant FcγRIIa (R131) with C-terminus Biotin (human) (UniProt P12318). The settings on record: domain or fragment.
Assay [13] deals with Recombinant FcγRIIIa (V158) with C-terminus Biotin (human). The following applies: domain or fragment.
Target sequence in this assay (P08637 17-208 F176V): as above
Assay [14] deals with Recombinant FcγRI with C-terminus Biotin (human) (UniProt P12314). The following applies: domain or fragment.
Assay [15] has as its target Recombinant FcγRIIa (R131) with C-terminus Biotin (human) (UniProt P12318). The source holds these as a separate data set.
For assay [16], the target named is Recombinant FcγRIIb with C-terminus Biotin (human) (UniProt P31994).
The target of assay [17] is Recombinant FcγRIIa (H131) with C-terminus Biotin (human) (UniProt P12318). This is another data set of the same source.
The target of assay [18] is Recombinant FcγRIIIa (F158) with C-terminus Biotin (human) (UniProt P08637). The source holds these as a separate data set.
Assay [19] has as its target Recombinant FcγRIIIa (V158) with C-terminus Biotin (human). The source holds these as a separate data set.
Target sequence in this assay (P08637 17-208 F176V): as above
Assay [20] addresses Recombinant FcγRI with C-terminus Biotin (human) (UniProt P12314).
For assay [21], the target named is Recombinant FcγRIIa (R131) with C-terminus Biotin (human) (UniProt P12318). This is another data set of the same source.
Assay [22] concerns the target Recombinant FcγRIIIa (V158) with C-terminus Biotin (human). The source holds these as a separate data set.
Target sequence in this assay (P08637 17-208 F176V): as above
Assay [23] concerns the target Recombinant FcγRIIa (H131) with C-terminus Biotin (human) (UniProt P12318). This is another data set of the same source.
Assay [24] concerns the target Recombinant FcγRIIIa (F158) with C-terminus Biotin (human) (UniProt P08637). This is another data set of the same source.
Assay [25] addresses Recombinant FcγRI with C-terminus Biotin (human) (UniProt P12314). This is another data set of the same source.
In assay [26] the target is Recombinant FcγRIIIa (F158) with C-terminus Biotin (human) (UniProt P08637). This is another data set of the same source.
For assay [27], the target named is Recombinant FcγRIIa (H131) with C-terminus Biotin (human) (UniProt P12318). This is another data set of the same source.
Assay [28] has as its target Recombinant FcγRIIa (R131) with C-terminus Biotin (human) (UniProt P12318). The source holds these as a separate data set.
Assay [29] concerns the target Recombinant FcγRIIIa (F158) with C-terminus Biotin (human) (UniProt P08637). The source holds these as a separate data set.
In assay [30] the target is Recombinant FcγRIIIa (V158) with C-terminus Biotin (human). This is another data set of the same source.
Target sequence in this assay (P08637 17-208 F176V): as above
Assay [31] deals with Recombinant FcγRIIa (R131) with C-terminus Biotin (human) (UniProt P12318). This is another data set of the same source.
The target in assay [32] is Recombinant FcγRIIa (H131) with C-terminus Biotin (human) (UniProt P12318). The source holds these as a separate data set.
The target is the same in assay [33]. The source holds these as a separate data set.
Assay [34] concerns the target Recombinant FcγRIIIa (V158) with C-terminus Biotin (human). This is another data set of the same source.
Target sequence in this assay (P08637 17-208 F176V): as above
The target of assay [35] is Recombinant FcγRIIa (R131) with C-terminus Biotin (human) (UniProt P12318). This is another data set of the same source.
In assay [36] the target is Recombinant FcγRIIIa (F158) with C-terminus Biotin (human) (UniProt P08637). The source holds these as a separate data set.
In assay [37] the target is Recombinant FcγRIIb with C-terminus Biotin (human) (UniProt P31994). The source holds these as a separate data set.
The target of assay [38] is Recombinant FcγRIIIa (F158) with C-terminus Biotin (human) (UniProt P08637). The source holds these as a separate data set.
In assay [39] the target is Recombinant FcγRIIIa (V158) with C-terminus Biotin (human). The source holds these as a separate data set.
Assay [40] addresses Recombinant FcγRIIa (H131) with C-terminus Biotin (human) (UniProt P12318). This is another data set of the same source.
Assay [41] deals with Recombinant FcγRIIa (R131) with C-terminus Biotin (human) (UniProt P12318). The source holds these as a separate data set.

Like-named read-outs stand apart in the source and are kept apart here.

Recombinant FcγRI with C-terminus Biotin (human), sequence (P12314 16-292): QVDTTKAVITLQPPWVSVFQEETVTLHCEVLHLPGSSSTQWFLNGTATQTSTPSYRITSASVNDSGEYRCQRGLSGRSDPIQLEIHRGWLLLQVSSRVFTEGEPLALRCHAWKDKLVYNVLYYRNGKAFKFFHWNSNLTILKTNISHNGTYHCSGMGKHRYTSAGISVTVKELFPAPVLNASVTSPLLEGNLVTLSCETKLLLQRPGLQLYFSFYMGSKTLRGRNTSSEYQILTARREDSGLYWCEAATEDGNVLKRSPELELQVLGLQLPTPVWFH
Human IgG3, sequence (P01860 whole entry, looked up): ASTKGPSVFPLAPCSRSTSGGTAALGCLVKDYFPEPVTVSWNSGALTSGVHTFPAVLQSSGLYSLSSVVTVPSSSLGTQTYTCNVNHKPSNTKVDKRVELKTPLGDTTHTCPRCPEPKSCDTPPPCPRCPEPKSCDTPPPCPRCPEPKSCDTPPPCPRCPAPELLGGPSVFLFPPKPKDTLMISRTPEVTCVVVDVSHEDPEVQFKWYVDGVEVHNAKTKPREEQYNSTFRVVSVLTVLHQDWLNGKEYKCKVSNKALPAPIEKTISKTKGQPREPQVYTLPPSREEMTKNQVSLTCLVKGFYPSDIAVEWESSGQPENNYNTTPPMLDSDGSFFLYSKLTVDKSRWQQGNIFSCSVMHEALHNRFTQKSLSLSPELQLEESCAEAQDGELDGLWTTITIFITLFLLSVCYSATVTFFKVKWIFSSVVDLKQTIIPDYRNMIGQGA
Recombinant FcγRIIIa (F158) with C-terminus Biotin (human), sequence (P08637 17-208): as the sequence (P08637 17-208 F176V) above, with V160F counted along it
Recombinant FcγRIIa (H131) with C-terminus Biotin (human), sequence (P12318 34-217): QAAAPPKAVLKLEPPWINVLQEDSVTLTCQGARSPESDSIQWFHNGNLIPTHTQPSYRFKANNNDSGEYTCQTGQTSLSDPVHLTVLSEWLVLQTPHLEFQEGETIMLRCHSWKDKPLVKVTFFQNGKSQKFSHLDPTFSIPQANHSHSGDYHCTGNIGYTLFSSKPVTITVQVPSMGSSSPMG
Recombinant FcγRIIa (R131) with C-terminus Biotin (human) (UniProt P12318), sequence (P12318 34-217 H167R): as the sequence (P12318 34-217) above, with H134R counted along it
Recombinant FcγRIIb with C-terminus Biotin (human), sequence (P31994 43-217): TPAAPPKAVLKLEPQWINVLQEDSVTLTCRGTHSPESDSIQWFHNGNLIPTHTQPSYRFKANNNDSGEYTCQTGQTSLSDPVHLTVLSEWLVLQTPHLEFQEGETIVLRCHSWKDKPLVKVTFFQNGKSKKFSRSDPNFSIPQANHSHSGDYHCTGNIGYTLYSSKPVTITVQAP

As for Infliximab (antibody), the Kd in assay [1] amounted to 350 nM; in assay [2] it was 21 nM; in [3] it was 340 nM; in [4], 230 nM; in [5], 120 nM.
For NIST mAb standard (antibody), the Kd came to 12 nM in [2], 800 nM in assay [3], 640 nM in [4] and 420 nM in assay [5].
Human IgG3 (from UniProt P01860): the 50% inhibitory concentration (IC50) amounted to 85 nM in assay [6]; 44.8 nM in [7]; 12.3 nM in [8]; 40.8 nM in [9]; 819 nM in assay [10].
As to Human IgG Fc Fragment, the half-maximal inhibitory concentration (IC50) in assay [11] is 342 nM; in assay [12], 2280 nM; in [13], 81 nM; in assay [14], 0.56 nM.
As for Etanercept (Fc fusion), the Kd in assay [2] was found to be 14 nM; in assay [3], 400 nM; in assay [4], 410 nM; in assay [5], 280 nM.
On to “Human IgG (human polyclonal IgG) (from UniProt P01857)”, for which the half-maximal inhibitory concentration (IC50) in assay [15] came out at 25.8 nM; in [16], 989 nM; in assay [17] it was 4.64 nM; in [18] it was 99.4 nM; in assay [19], 15.7 nM; in assay [20], 0.11 nM.
For Cetuximab (antibody), the equilibrium dissociation constant (Kd) in assay [1] was 1300 nM; in assay [2] it was 17 nM; in assay [3], 1400 nM; in [4], 970 nM.
In the case of Octagam (from UniProt P01857), the IC50 in assay [21] was determined as 249 nM; in [22], 18.9 nM; in assay [23], 80.9 nM; in [24] it was 131 nM; in assay [10] it was 2080 nM.
With Human IgG1 (from UniProt P01857), the half-maximal inhibitory concentration (IC50) in assay [25] stood at 0.23 nM; in [26] it was 65 nM; in [27], 67 nM; in assay [28] it was 122 nM.
Take Flebogamma (from UniProt P01857): the IC50 came to 111 nM in [29]; 15.2 nM in assay [30]; 117 nM in [31]; 918 nM in [10]; 37.3 nM in assay [32].
On to NIST mAb standard (from UniProt P01857), for which the IC50 in assay [33] was 98.1 nM; in assay [34] it was 44.5 nM; in [35], 261 nM; in [36], 466 nM.
With Gamunex (from UniProt P01857), the half-maximal inhibitory concentration (IC50) in assay [37] came out at 2670 nM; in assay [38], 110 nM; in assay [39], 17 nM; in assay [40], 63.5 nM; in assay [41] it was 204 nM.
